Assay results as given in patent US20250262210A1 (TRUSTEES OF COLUMBIA UNIVERSITY IN THE CITY OF NEW YORK, published 2025).

How the values were obtained:
Assay in all cases: IP/MS, LZTR1 R810W-FLAG, U87
[1] = target: MTR (human, UniProt Q99707 1-1265, limits assumed)
Summary of the method: (§1)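 Extracted peptides in 3% acetonitrile/0.1% formic acid ran on a 50 cm C18 column into an Orbitrap Fusion, with MaxQuant identification and spectral counting.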

[2] = target: HELZ (human, UniProt P42694 1-1942, limits assumed)
Summary of the method: as §1

[3] = target: BRCA2 (human, UniProt P51587 1-3418)
Summary of the method: as §1

[4] = target: IFT172 (human, UniProt Q9UG01 1-1749, limits assumed)
Summary of the method: as §1

[5] = target: RNF213 (human, UniProt Q63HN8 1-5207, limits assumed)
Summary of the method: as §1

[6] = target: T1, STK11IP (human, UniProt Q8N1F8 1-1088)
T1 sequence (looked up): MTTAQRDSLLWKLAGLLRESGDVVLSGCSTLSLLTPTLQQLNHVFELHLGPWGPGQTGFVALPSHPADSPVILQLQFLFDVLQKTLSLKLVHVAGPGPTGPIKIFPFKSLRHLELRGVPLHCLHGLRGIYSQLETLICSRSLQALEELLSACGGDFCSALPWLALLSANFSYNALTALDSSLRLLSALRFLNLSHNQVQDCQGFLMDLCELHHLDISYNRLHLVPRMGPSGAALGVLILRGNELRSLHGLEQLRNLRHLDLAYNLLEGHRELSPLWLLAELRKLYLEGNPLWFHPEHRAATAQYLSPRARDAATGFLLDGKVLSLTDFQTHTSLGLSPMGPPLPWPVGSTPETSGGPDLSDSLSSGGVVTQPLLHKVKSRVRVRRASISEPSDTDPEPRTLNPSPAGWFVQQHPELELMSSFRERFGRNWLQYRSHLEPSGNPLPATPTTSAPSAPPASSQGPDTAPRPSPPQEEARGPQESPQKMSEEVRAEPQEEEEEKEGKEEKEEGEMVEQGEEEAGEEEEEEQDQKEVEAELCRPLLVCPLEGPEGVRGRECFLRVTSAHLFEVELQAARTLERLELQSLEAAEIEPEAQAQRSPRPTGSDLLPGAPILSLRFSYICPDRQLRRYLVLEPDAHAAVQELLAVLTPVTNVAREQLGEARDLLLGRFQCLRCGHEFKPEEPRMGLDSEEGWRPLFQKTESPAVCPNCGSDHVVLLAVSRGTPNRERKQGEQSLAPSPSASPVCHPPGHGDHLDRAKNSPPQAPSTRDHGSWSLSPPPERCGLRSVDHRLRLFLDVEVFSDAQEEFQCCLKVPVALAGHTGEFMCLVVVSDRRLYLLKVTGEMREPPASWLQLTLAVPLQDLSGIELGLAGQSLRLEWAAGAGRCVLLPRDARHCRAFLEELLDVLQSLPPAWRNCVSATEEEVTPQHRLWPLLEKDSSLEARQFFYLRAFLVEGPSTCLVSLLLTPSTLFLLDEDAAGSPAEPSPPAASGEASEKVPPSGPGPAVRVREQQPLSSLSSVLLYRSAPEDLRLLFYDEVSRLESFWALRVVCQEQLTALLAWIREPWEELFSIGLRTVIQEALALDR
Summary of the method: as §1

[7] = target: CDK5RAP2 (human, UniProt Q96SN8 1-1893, limits assumed)
Summary of the method: as §1

Measured: binding result

MTR, sequence (Q99707 whole entry, the tested form may be a part): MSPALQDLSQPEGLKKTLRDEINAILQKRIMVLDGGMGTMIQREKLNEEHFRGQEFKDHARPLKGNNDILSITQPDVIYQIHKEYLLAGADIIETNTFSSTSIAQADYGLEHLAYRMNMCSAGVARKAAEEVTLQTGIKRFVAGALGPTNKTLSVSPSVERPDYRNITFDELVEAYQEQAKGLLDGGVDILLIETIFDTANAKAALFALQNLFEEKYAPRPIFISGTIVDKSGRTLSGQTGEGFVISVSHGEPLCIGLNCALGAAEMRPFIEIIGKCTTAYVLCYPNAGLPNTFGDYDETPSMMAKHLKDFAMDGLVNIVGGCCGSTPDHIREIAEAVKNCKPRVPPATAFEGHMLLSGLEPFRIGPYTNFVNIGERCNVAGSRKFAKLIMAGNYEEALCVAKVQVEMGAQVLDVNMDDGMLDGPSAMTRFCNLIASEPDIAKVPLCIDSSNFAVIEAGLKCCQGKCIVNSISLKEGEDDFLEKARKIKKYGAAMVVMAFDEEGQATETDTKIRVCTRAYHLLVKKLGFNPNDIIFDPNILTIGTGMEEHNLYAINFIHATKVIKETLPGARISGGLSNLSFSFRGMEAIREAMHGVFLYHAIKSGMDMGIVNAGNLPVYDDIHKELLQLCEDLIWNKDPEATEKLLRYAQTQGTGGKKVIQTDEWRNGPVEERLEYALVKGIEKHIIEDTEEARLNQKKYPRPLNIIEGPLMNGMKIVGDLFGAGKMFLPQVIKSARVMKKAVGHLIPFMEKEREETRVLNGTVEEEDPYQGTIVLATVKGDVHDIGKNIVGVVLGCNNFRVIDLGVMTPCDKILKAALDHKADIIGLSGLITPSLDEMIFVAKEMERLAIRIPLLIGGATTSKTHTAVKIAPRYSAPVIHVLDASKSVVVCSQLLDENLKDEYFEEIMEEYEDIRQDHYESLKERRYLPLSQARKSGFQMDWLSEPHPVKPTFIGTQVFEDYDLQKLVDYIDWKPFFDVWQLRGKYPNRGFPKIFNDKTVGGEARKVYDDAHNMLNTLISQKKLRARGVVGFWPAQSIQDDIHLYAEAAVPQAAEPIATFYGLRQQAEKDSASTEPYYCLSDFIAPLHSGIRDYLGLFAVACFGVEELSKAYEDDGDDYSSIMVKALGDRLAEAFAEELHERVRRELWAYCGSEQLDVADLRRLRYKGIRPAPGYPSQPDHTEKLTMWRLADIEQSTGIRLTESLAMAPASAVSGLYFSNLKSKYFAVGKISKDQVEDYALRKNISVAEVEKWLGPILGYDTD
HELZ, sequence (P42694 whole entry): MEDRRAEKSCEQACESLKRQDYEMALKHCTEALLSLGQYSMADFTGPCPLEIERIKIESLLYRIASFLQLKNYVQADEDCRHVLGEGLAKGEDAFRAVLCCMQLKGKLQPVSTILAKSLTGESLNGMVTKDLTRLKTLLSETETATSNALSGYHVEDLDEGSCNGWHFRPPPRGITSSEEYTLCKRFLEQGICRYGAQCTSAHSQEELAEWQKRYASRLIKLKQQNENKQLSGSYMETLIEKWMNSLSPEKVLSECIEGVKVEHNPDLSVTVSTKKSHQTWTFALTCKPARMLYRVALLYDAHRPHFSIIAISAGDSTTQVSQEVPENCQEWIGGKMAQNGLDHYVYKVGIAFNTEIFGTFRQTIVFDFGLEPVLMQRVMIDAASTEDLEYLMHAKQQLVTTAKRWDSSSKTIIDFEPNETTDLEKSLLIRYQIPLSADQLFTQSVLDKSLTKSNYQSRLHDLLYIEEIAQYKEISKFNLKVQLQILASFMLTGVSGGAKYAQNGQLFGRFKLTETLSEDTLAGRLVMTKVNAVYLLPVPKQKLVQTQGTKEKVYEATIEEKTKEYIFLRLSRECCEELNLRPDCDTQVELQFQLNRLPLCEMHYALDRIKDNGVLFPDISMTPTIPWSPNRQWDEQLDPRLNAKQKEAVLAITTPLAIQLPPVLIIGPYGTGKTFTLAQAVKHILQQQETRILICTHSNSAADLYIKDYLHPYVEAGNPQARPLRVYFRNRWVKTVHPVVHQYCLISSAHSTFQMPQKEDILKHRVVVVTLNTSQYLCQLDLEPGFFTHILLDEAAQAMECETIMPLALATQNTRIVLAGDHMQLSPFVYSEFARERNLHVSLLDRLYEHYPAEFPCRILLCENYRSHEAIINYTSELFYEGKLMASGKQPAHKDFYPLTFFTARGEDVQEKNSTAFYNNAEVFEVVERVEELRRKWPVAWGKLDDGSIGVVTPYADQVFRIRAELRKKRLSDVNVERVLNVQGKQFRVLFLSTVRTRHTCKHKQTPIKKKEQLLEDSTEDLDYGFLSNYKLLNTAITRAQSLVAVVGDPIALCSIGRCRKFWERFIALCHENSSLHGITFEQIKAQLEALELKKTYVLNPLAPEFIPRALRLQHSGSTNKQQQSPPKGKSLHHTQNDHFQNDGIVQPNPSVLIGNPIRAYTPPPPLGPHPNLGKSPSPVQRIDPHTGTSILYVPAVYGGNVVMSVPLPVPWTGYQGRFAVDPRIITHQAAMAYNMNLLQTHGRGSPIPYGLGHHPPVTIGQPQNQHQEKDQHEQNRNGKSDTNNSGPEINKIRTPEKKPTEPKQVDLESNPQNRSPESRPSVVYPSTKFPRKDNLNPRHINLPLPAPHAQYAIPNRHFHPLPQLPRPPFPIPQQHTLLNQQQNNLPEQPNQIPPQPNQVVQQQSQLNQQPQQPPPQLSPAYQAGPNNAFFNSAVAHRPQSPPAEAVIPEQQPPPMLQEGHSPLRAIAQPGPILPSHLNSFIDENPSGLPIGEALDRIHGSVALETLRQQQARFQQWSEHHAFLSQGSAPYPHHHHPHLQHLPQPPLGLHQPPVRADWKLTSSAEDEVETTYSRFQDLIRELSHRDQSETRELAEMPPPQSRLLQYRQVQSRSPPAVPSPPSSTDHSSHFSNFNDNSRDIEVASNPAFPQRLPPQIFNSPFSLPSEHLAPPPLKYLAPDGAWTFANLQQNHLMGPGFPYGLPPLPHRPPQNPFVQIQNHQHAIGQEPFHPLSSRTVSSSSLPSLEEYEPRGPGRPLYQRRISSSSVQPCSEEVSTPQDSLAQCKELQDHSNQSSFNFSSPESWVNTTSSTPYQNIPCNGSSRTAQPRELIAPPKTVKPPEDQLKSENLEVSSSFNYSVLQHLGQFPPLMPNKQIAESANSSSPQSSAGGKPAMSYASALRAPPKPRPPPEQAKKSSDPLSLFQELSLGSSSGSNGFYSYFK
IFT172, sequence (Q9UG01 whole entry): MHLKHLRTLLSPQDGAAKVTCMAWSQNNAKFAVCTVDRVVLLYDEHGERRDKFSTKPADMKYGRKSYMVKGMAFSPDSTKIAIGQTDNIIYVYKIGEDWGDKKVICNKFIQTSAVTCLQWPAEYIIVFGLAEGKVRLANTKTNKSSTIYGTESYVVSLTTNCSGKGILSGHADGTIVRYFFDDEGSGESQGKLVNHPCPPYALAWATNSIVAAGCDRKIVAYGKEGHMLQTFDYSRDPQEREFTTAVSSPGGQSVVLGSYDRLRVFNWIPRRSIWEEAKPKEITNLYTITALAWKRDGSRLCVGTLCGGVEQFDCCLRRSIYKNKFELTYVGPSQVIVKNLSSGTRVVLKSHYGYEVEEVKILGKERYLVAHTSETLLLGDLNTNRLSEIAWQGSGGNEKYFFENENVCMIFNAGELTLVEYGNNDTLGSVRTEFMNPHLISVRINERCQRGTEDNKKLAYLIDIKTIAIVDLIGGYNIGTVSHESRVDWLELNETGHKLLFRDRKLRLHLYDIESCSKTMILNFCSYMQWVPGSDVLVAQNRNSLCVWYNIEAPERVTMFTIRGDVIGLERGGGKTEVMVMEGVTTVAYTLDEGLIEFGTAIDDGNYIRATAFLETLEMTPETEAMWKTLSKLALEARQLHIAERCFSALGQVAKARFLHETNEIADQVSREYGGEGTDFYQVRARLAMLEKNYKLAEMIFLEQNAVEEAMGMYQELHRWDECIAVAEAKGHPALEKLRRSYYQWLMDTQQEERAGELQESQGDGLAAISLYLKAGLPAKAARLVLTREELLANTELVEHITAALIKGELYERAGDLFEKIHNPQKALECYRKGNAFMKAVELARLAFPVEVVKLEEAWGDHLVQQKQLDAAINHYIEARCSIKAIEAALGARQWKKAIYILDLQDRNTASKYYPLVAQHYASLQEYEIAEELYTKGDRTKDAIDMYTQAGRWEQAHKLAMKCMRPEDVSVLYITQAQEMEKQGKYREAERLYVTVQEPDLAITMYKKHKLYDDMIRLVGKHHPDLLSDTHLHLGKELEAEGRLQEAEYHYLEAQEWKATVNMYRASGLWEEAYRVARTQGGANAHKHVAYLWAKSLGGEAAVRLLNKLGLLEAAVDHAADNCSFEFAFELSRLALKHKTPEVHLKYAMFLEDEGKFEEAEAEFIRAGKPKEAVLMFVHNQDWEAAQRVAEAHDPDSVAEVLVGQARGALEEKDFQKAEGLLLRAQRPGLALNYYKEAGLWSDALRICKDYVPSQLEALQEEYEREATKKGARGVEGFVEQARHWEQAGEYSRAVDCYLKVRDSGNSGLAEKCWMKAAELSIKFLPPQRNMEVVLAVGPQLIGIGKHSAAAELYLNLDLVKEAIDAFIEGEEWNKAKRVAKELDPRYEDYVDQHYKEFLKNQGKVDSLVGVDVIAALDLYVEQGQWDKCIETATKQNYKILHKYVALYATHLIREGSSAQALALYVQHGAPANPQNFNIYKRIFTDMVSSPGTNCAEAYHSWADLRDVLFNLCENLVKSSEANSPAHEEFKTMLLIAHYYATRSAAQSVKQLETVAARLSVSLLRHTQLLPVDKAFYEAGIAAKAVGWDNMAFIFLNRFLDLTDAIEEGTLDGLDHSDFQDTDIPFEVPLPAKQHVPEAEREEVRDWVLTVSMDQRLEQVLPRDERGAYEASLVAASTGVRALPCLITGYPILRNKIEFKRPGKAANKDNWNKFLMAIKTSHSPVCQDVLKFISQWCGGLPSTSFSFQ

B1: LZTR1 R810W-FLAG (other, human, UniProt Q8N653 1-840, looked up)
chain: MAGPGSTGGQIGAAALAGGARSKVAPSVDFDHSCSDSVEYLTLNFGPFETVHRWRRLPPCDEFVGARRSKHTVVAYKDAIYVFGGDNGKTMLNDLLRFDVKDCSWCRAFTTGTPPAPRYHHSAVVYGSSMFVFGGYTGDIYSNSNLKNKNDLFEYKFATGQWTEWKIEGRLPVARSAHGATVYSDKLWIFAGYDGNARLNDMWTIGLQDRELTCWEEVAQSGEIPPSCCNFPVAVCRDKMFVFSGQSGAKITNNLFQFEFKDKTWTRIPTEHLLRGSPPPPQRRYGHTMVAFDRHLYVFGGAADNTLPNELHCYDVDFQTWEVVQPSSDSEVGGAEVPERACASEEVPTLTYEERVGFKKSRDVFGLDFGTTSAKQPTQPASELPSGRLFHAAAVISDAMYIFGGTVDNNIRSGEMYRFQFSCYPKCTLHEDYGRLWESRQFCDVEFVLGEKEECVQGHVAIVTARSRWLRRKITQARERLAQKLEQEAAPVPREAPGVAAGGARPPLLHVAIREAEARPFEVLMQFLYTDKIKYPRKGHVEDVLLIMDVYKLALSFQLCRLEQLCRQYIEASVDLQNVLVVCESAARLQLSQLKEHCLNFVVKESHFNQVIMMKEFERLSSPLIVEIVRRKQQPPPRTPLDQPVDIGTSLIQDMKAYLEGAGAEFCDITLLLDGHPRPAHKAILAARSSYFEAMFRSFMPEDGQVNISIGEMVPSRQAFESMLRYIYYGEVNMPPEDSLYLFAAPYYYGFYNNRLQAYCKQNLEMNVTVQNVLQILEAADKTQALDMKRHCLHIIVHQFTKVSKLPTLWSLSQQLLLDIIDSLASHISDKQCAELGADI
notes: Stably expressed in U87 cells by lentivirus; also called LZTR1-FLAG-R810W; LZTR1 RW; not shown: FLAG tag
binds: all assays above
